Data published in patent publication US20230193332A1.
Positions count from the first letter of the chain named. Numbers in names are those of the source.

B1: NdmD V541W mutant (NdmDW) (enzyme, UniProt H9N291 1-588, looked up)
chain: MNKLDVNQWFPIATTEDLPKRHVFHATLLGQEMAIWRDDSGSVNAWENRCPHRGLRLTLGANTGNELRCQYHGWTYESGTGGCTFVPAHRDAPPPNAARVNTFPVREKHGFIWTTLGQPPGEPISILDDAQLVNAVKTNLHSVVIDADIDGVVSVLRQNLSAFIDVFGAASAEDLHLKSMLQDRGILVTRSGSIAIHFYMQRSTISKCVVHAQVLTPGRPGYELQKNYSYAMNVIRRAAEAVATDLISITDISDQTIEKLEVVRENMTKAPPTHYICEVVTRTQETGDINSYWLKPIGYPLPAFSPGMHISITTPEGSIRQYSLVNGPDERESFIIGVKKEIQSRGGSRSMHEDVKVGTQLKVTLPRNGFPLVQTRKHPILVAGGIGITPILCMAQALDQQGSSYEIHYFARAFEHVPFQDRLTALGDRLNVHLGLGPDETRAKLPDIMEIHNAQDVDVYTCGPQPMIETVSAVALAHGIAEESIRFEFFSKKNDVPVSDEEYEVELKKTGQIFTVSPGSTLLQACLDNDVRIEASCEQGWCGTCITPVVSGDLEHHDTYLSKKERESGKWIMPCVSRCKSKKIVLDL
B2: NdmD V541R mutant (NdmDR) (enzyme, UniProt H9N291 1-588, looked up)
chain: B1 chain with W541R

Legend:
[1] = target: T1, NdmB (wild-type theobromine N3-demethylase) (UniProt H9N290); test: cell-based or functional assay
T1 sequence (looked up): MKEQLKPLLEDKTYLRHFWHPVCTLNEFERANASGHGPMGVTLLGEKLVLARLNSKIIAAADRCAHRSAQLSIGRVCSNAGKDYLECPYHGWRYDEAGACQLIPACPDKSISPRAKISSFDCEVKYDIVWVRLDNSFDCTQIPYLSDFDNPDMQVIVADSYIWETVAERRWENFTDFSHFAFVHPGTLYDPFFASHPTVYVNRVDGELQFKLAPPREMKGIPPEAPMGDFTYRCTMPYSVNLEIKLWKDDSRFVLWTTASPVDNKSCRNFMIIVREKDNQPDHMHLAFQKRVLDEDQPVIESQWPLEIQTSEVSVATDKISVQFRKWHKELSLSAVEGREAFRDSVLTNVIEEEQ

[2] = target: T2, NdmA (wild-type caffeine N1-demethylase) (UniProt H9N289); test: cell-based or functional assay
T2 sequence (looked up): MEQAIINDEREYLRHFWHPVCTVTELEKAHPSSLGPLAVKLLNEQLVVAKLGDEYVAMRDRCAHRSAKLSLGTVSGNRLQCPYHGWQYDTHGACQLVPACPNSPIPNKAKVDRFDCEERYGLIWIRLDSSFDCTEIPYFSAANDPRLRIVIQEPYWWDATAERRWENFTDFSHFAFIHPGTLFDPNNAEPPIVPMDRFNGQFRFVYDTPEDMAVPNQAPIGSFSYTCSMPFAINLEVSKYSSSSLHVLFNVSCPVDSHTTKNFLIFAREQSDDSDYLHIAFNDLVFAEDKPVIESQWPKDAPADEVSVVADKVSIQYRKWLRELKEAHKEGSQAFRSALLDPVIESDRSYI

Binder	N3-demethylase activity in NdmB cells, reduction [1] [% reduced]	remaining N-demethylase activity in the in vivo assays (% of the wild-type enzyme) [1]	N1-demethylase activity in NdmA cells, lower than in cells with the wild type reductase [2] [% lower]	remaining N-demethylase activity in the in vivo assays (% of the wild-type enzyme) [2]
B1	36	> 60	7	> 60
B2	20	> 60	30	> 60
